From article PMC3650583, “Dissection of Pilus Tip Assembly by the FimD Usher Monomer” (Journal of Molecular Biology, 2013)

Key:
[1] = biological target: FimD:FimC:FimH complex (Escherichia coli (uropathogenic)) (UniProt P30130); test: AUC; sedimentation velocity of purified FimD:FimC:FimH at the higher concentrations (> 1 μM, up to 4.3 μM); 20 °C, 42,000 rpm, absorbance optics; 50 mM Tris pH 8.0, 150 mM NaCl, 1 mM EDTA, 0.05% DDM; c(s) by SedFit; Kd of usher dimerisation (dimer to monomers) estimated by integrating the monomer and dimer peaks at 4.3 μM
[2] = biological target: FimF (Escherichia coli (uropathogenic)) (UniProt P08189); test: donor strand exchange (DSE) assay, SDS-PAGE of the SDS-stable subunit:subunit product; 20 °C; 500 nM usher complex (acceptor subunit last in FimD:FimC:...) and 5 μM chaperone:subunit complex (donor), one subunit labelled with Alexa 647; quenched with HCl (quench flow for the fast reactions); fitted to Eq. (1) with KinTek Explorer
[3] = biological target: FimG (Escherichia coli (uropathogenic)) (UniProt P08190); test: as above
[4] = biological target: FimH (Escherichia coli (uropathogenic)) (UniProt P08191); test: as above
[5] = biological target: the molecule itself; test: donor strand exchange (DSE) assay, SDS-PAGE of the SDS-stable subunit:subunit product; spontaneous (non-usher mediated) formation of FimG polymers from FimC:FimG during the slow reactions
[6] = biological target: T1, FimF (Escherichia coli (uropathogenic), UniProt P08189 21-176); test: donor strand exchange (DSE) assay, SDS-PAGE of the SDS-stable subunit:subunit product; 20 °C; FimD:FimC:FimH:FimG and FimC:FimF both unlabelled; silver staining and densitometry of the FimH:FimG:FimF product; conditions: both partners purified
T1 construct: also called unlabelled FimF; FimC:FimF (as chaperone complex)
T1 sequence: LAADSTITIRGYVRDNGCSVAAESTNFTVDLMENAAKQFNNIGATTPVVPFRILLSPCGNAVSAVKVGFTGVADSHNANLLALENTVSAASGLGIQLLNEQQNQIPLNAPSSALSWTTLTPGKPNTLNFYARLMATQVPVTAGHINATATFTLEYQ

[7] = biological target: FimF^Q99C[A647] (Escherichia coli (uropathogenic)); test: donor strand exchange (DSE) assay, SDS-PAGE of the SDS-stable subunit:subunit product; 20 °C; 500 nM usher complex (acceptor subunit last in FimD:FimC:...) and 5 μM chaperone:subunit complex (donor), one subunit labelled with Alexa 647; quenched with HCl (quench flow for the fast reactions); fitted to Eq. (1) with KinTek Explorer
[8] = biological target: T1, FimF; test: as above; conditions: both partners purified
[9] = biological target: the molecule itself; test: AUC; sedimentation velocity of FimD alone at 5 μM and 2 μM; 20 °C, 42,000 rpm; 50 mM Tris pH 8.0, 150 mM NaCl, 1 mM EDTA, 0.05% DDM; monomer to dimer

Molecule “FimD:FimC:FimH complex (from UniProt P30130;P31697;P08191)” has a Kd [1] of 20 µM.

With FimF^Q99C[A647] (natural protein) the kDSE (rate of donor strand exchange, 20 °C) [2] was 0.00598 s⁻¹, the kDSE (rate of donor strand exchange, 20 °C) [3] was 0.0527 s⁻¹ and the kDSE (rate of donor strand exchange, 20 °C) [4] was 0.972 s⁻¹.

B1: FimG (natural protein)
chain: ADVTITVNGKVVAKPCTVSTTNATVDLGDLYSFSLMSAGAASAWHDVALELTNCPVGTSRVTASFSGAADSTGYYKNQGTAQNIQLELQDDSGNTLNTGATKTVQVDDSSQSAHFPLQVRALTVNGGATQGTIQAVISITYTYS
notes: also called unlabelled FimG; FimC:FimG (as chaperone complex)
With B1 the binding result [5] was “binds”, the binding result [6] was “binds” and the kDSE (rate of donor strand exchange, 20 °C) [7] was 0.00543 s⁻¹.

B2: FimG^S92C[A647] (natural protein)
chain: ADVTITVNGKVVAKPCTVSTTNATVDLGDLYSFSLMSAGAASAWHDVALELTNCPVGTSRVTASFSGAADSTGYYKNQGTAQNIQLELQDDCGNTLNTGATKTVQVDDSSQSAHFPLQVRALTVNGGATQGTIQAVISITYTYS
modifications: fluorescent Alexa 647 label at position 92 (on S92C)
B2: binds [8].

B3: FimD usher (natural protein)
chain: DLYFNPRFLADDPQAVADLSRFENGQELPPGTYRVDIYLNNGYMATRDVTFNTGDSEQGIVPCLTRAQLASMGLNTASVAGMNLLADDACVPLTTMVQDATAHLDVGQQRLNLTIPQAFMSNRARGYIPPELWDPGINAGLLNYNFSGNSVQNRIGGNSHYAYLNLQSGLNIGAWRLRDNTTWSYNSSDRSSGSKNKWQHINTWLERDIIPLRSRLTLGDGYTQGDIFDGINFRGAQLASDDNMLPDSQRGFAPVIHGIARGTAQVTIKQNGYDIYNSTVPPGPFTINDIYAAGNSGDLQVTIKEADGSTQIFTVPYSSVPLLQREGHTRYSITAGEYRSGNAQQEKTRFFQSTLLHGLPAGWTIYGGTQLADRYRAFNFGIGKNMGALGALSVDMTQANSTLPDDSQHDGQSVRFLYNKSLNESGTNIQLVGYRYSTSGYFNFADTTYSRMNGYNIETQDGVIQVKPKFTDYYNLAYNKRGKLQLTVTQQLGRTSTLYLSGSHQTYWGTSNVDEQFQAGLNTAFEDINWTLSYSLTKNAWQKGRDQMLALNVNIPFSHWLRSDSKSQWRHASASYSMSHDLNGRMTNLAGVYGTLLEDNNLSYSVQTGYAGGGDGNSGSTGYATLNYRGGYGNANIGYSHSDDIKQLYYGVSGGVLAHANGVTLGQPLNDTVVLVKAPGAKDAKVENQTGVRTDWRGYAVLPYATEYRENRVALDTNTLADNVDLDNAVANVVPTRGAIVRAEFKARVGIKLLMTLTHNNKPLPFGAMVTSESSQSSGIVADNGQVYLSGMPLAGKVQVKWGEEENAHCVANYQLPPESQQQLLTQLSAECR
notes: also called apo FimD; the usher; source: in 0.05% DDM
B3 was tested, and the “stoichiometry N” value [9] was 2.
